Molecular target: the molecule itself
Experiment: native gel or EMSA

B1: Human recombinant ALDH2 protein (mitochondrial aldehyde dehydrogenase), untreated (enzyme, UniProt P05091 18-517, looked up)
chain: SAAATQAVPAPNQQPEVFCNQIFINNEWHDAVSRKTFPTVNPSTGEVICQVAEGDKEDVDKAVKAARAAFQLGSPWRRMDASHRGRLLNRLADLIERDRTYLAALETLDNGKPYVISYLVDLDMVLKCLRYYAGWADKYHGKTIPIDGDFFSYTRHEPVGVCGQIIPWNFPLLMQAWKLGPALATGNVVVMKVAEQTPLTALYVANLIKEAGFPPGVVNIVPGFGPTAGAAIASHEDVDKVAFTGSTEIGRVIQVAAGSSNLKRVTLELGGKSPNIIMSDADMDWAVEQAHFALFFNQGQCCCAGSRTFVQEDIYDEFVERSVARAKSRVVGNPFDSKTEQGPQVDETQFKKILGYINTGKQEGAKLLCGGGIAADRGYFIQPTVFGDVQDGMTIAKEEIFGPVMQILKFKTIEEVVGRANNSTYGLAAAVFTKDLDKANYLSQALQAGTVWVNCYDVFGAQSPFGGYKMSGSGRELGEYGLQAYTEVKTVTVKVPQKNS
B1: binds.
